Test results taken from paper PMC7500927.

T1: TrxA-His6-TbRAP1(639-761) (Trypanosoma brucei, UniProt C1JEX5 639-761)
T1 sequence: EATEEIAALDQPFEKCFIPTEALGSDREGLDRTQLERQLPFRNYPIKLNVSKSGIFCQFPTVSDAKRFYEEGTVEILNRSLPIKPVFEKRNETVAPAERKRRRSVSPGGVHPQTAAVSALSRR

T2: TrxA-His6-TbRAP1(639-761) 5A (Trypanosoma brucei, UniProt C1JEX5 639-761, R737A;K738A;R739A;R740A;R741A)
T2 sequence: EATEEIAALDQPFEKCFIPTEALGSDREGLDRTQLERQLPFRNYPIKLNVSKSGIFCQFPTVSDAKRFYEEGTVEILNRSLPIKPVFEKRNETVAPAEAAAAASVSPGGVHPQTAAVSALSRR

T3: TrxA-His6-TbRAP1(639-733) (Trypanosoma brucei, UniProt C1JEX5 639-733)
T3 sequence: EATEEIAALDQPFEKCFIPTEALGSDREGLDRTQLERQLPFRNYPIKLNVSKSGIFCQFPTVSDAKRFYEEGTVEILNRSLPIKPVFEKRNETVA

T4: TrxA-His6-TbRAP1(639-761) 2SA (Trypanosoma brucei, UniProt C1JEX5 639-761, S742A;S744A)
T4 sequence: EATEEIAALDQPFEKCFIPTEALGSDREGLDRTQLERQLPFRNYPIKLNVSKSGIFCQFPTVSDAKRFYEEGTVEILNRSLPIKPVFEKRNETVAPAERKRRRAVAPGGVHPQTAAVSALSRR

T5: TbRAP1(639-761) 5A, tag removed (Trypanosoma brucei, UniProt C1JEX5 639-761, R737A;K738A;R739A;R740A;R741A)
T5 sequence: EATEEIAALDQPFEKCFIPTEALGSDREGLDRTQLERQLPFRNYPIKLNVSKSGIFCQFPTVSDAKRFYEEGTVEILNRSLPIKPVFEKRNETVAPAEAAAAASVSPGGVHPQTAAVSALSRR

T6: TbRAP1(639-761), tag removed (Trypanosoma brucei, UniProt C1JEX5 639-761)
T6 sequence: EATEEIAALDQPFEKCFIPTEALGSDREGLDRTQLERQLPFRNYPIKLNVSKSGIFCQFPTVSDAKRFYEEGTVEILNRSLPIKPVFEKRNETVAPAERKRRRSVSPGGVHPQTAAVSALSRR


Key:
[1] = target: T1, TrxA-His6-TbRAP1(639-761); experiment: EMSA
[2] = target: T2, TrxA-His6-TbRAP1(639-761) 5A; experiment: EMSA
[3] = target: T3, TrxA-His6-TbRAP1(639-733); experiment: EMSA
[4] = target: T1, TrxA-His6-TbRAP1(639-761); experiment: competition
[5] = target: T4, TrxA-His6-TbRAP1(639-761) 2SA; experiment: EMSA
[6] = target: T5, TbRAP1(639-761) 5A, tag removed; experiment: NMR HSQC
[7] = target: T6, TbRAP1(639-761), tag removed; experiment: NMR HSQC
[8] = target: T1, TrxA-His6-TbRAP1(639-761); experiment: EMSA; remark: listed apart in the source

| Binder | Kd [1] [µM] | binding result [2] | binding result [3] | further results |
| --- | --- | --- | --- | --- |
| dsDNA 100 bp random (dsDNA) DNA 1: GAATTCCAAAGAAGCCATGCGCCGTGCAGAGCAGGAAAAAGCCACACGGGAACTCCTCCTGCAACAAACTTCAGCACCACATGCATCATCAGTTACATCCGGGATCC DNA 2: GGATCCCGGATGTAACTGATGATGCATGTGGTGCTGAAGTTTGTTGCAGGAGGAGTTCCCGTGTGGCTTTTTCCTGCTCTGCACGGCGCATGGCTTCTTTGGAATTC | 21.5 | no binding | no binding |  |
| dsDNA 200 bp random (dsDNA) DNA 1: CGCGCGTAATACGACTCACTATAGGGCGAATTGGGTACCGGGCCCCCCCTCGAGGTCGACGGTATCGATAAGCTTGATATCGAATTCCAAAGAAGCCATGCGCCGTGCAGAGCAGGAAAAAGCCACACGGGAACTCCTCCTGCAACAAACTTCAGCACCACATGCATCATCAGTTACATCCGGATCCACTAGTTCTAG DNA 2: CTAGAACTAGTGGATCCGGATGTAACTGATGATGCATGTGGTGCTGAAGTTTGTTGCAGGAGGAGTTCCCGTGTGGCTTTTTCCTGCTCTGCACGGCGCATGGCTTCTTTGGAATTCGATATCAAGCTTATCGATACCGTCGACCTCGAGGGGGGGCCCGGTACCCAATTCGCCCTATAGTGAGTCGTATTACGCGCG |  |  |  | binding result [4]: binds |
| dsDNA 80 bp random (dsDNA) DNA 1: CGTGCAGAGCAGGAAAAAGCCACACGGGAACTCCTCCTGCAACAAACTTCAGCACCACATGCATCATCAGTTACATCCGG DNA 2: CCGGATGTAACTGATGATGCATGTGGTGCTGAAGTTTGTTGCAGGAGGAGTTCCCGTGTGGCTTTTTCCTGCTCTGCACG |  |  |  | binding result [1]: binds |
| ssDNA 100 nt random (ssDNA) DNA: AATTCCAAAGAAGCCATGCGCCGTGCAGAGCAGGAAAAAGCCACACGGGAACTCCTCCTGCAACAAACTTCAGCACCACATGCATCATCAGTTACATCCG | 0.31 | no binding | no binding | binding result [5]: binds |
| random dsDNA 18 bp (NMR) (dsDNA) DNA 1: TGTTGAGGAGGTGGTGAT DNA 2: ATCACCACCTCCTCAACA |  |  |  | binding result [6]: no binding; binding result [7]: binds |
| dsDNA 150 bp random (dsDNA) DNA 1: GTACCGGGCCCCCCCTCGAGGTCGACGGTATCGATAAGCTTGATATCGAATTCAATTCCAAAGAAGCCATGCGCCGTGCAGAGCAGGAAAAAGCCACACGGGAACTCCTCCTGCAACAAACTTCAGCACCACATGCATCATCAGTTACATCCGGGATC DNA 2: GATCCCGGATGTAACTGATGATGCATGTGGTGCTGAAGTTTGTTGCAGGAGGAGTTCCCGTGTGGCTTTTTCCTGCTCTGCACGGCGCATGGCTTCTTTGGAATTGAATTCGATATCAAGCTTATCGATACCGTCGACCTCGAGGGGGGGCCCGGTAC |  |  |  | binding result [8]: binds |
